Test results: the Human Domainome abundance scans (Beltran et al. 2025)
± gives the uncertainty stated by the source.

B1: Transcription elongation regulator 1-like protein, residues 448 to 504; numbered along this chain, Q5VWI1 (parent)
chain: LPLEERVTHFRDMLLERGVSAFSTWEKELHKIVFDPRYLLLNSEERKQIFEQFVKTR

Variants of: B1
Assay: abundance fitness (aPCA) (normalised: wild type 0, dead -1); higher = more abundant; growth selection in yeast, the domain comes from the species named
Conditions: Homo sapiens

Point of comparison: LPLEEGVTHFRDMLLERGVSAFSTWEKELHKIVFDPRYLLLNSEERKQIFEQFVKTR [R6G], abundance fitness -0.894 ± 0.23. Against it:
- LPLRERVTHFRDMLLERGVSAFSTWEKELHKIVFDPRYLLLNSEERKQIFEQFVKTR [E4R] — within error, -0.867 ± 0.2
- LPLLERVTHFRDMLLERGVSAFSTWEKELHKIVFDPRYLLLNSEERKQIFEQFVKTR [E4L] — higher, -0.151 ± 0.2
- LPLNERVTHFRDMLLERGVSAFSTWEKELHKIVFDPRYLLLNSEERKQIFEQFVKTR [E4N] — higher, 0.154 ± 0.4
- LPLCERVTHFRDMLLERGVSAFSTWEKELHKIVFDPRYLLLNSEERKQIFEQFVKTR [E4C] — higher, -0.458 ± 0.18
- LPLMERVTHFRDMLLERGVSAFSTWEKELHKIVFDPRYLLLNSEERKQIFEQFVKTR [E4M] — within error, -0.646 ± 0.45
- LPLTERVTHFRDMLLERGVSAFSTWEKELHKIVFDPRYLLLNSEERKQIFEQFVKTR [E4T] — within error, -0.631 ± 0.23
- LPLAERVTHFRDMLLERGVSAFSTWEKELHKIVFDPRYLLLNSEERKQIFEQFVKTR [E4A] — within error, -0.368 ± 0.33
- LPLEERITHFRDMLLERGVSAFSTWEKELHKIVFDPRYLLLNSEERKQIFEQFVKTR [V7I] — higher, 0.199 ± 0.16
- LPLEERCTHFRDMLLERGVSAFSTWEKELHKIVFDPRYLLLNSEERKQIFEQFVKTR [V7C] — within error, -0.568 ± 0.2
- LPLEERHTHFRDMLLERGVSAFSTWEKELHKIVFDPRYLLLNSEERKQIFEQFVKTR [V7H] — higher, -0.303 ± 0.22
- LPLEERSTHFRDMLLERGVSAFSTWEKELHKIVFDPRYLLLNSEERKQIFEQFVKTR [V7S] — higher, -0.334 ± 0.24
- LPLEERFTHFRDMLLERGVSAFSTWEKELHKIVFDPRYLLLNSEERKQIFEQFVKTR [V7F] — higher, 0.022 ± 0.14
- LPLEERLTHFRDMLLERGVSAFSTWEKELHKIVFDPRYLLLNSEERKQIFEQFVKTR [V7L] — higher, -0.096 ± 0.15
- LPLEERTTHFRDMLLERGVSAFSTWEKELHKIVFDPRYLLLNSEERKQIFEQFVKTR [V7T] — higher, -0.34 ± 0.094
- LPLEERYTHFRDMLLERGVSAFSTWEKELHKIVFDPRYLLLNSEERKQIFEQFVKTR [V7Y] — higher, -0.075 ± 0.35
- LPLEERKTHFRDMLLERGVSAFSTWEKELHKIVFDPRYLLLNSEERKQIFEQFVKTR [V7K] — higher, 0.843 ± 0.13
- LPLEERETHFRDMLLERGVSAFSTWEKELHKIVFDPRYLLLNSEERKQIFEQFVKTR [V7E] — within error, -0.406 ± 0.4
- LPLEERGTHFRDMLLERGVSAFSTWEKELHKIVFDPRYLLLNSEERKQIFEQFVKTR [V7G] — higher, -0.407 ± 0.14
- LPLEERATHFRDMLLERGVSAFSTWEKELHKIVFDPRYLLLNSEERKQIFEQFVKTR [V7A] — higher, 0.039 ± 0.16
- LPLEERMTHFRDMLLERGVSAFSTWEKELHKIVFDPRYLLLNSEERKQIFEQFVKTR [V7M] — higher, 0.434 ± 0.21
- LPLEERWTHFRDMLLERGVSAFSTWEKELHKIVFDPRYLLLNSEERKQIFEQFVKTR [V7W] — within error, -0.594 ± 0.5
- LPLEEFVTHFRDMLLERGVSAFSTWEKELHKIVFDPRYLLLNSEERKQIFEQFVKTR [R6F] — within error, -0.292 ± 0.41
- LPLEEKVTHFRDMLLERGVSAFSTWEKELHKIVFDPRYLLLNSEERKQIFEQFVKTR [R6K] — higher, -0.485 ± 0.15
- LPLEEAVTHFRDMLLERGVSAFSTWEKELHKIVFDPRYLLLNSEERKQIFEQFVKTR [R6A] — higher, 0.062 ± 0.2
- LPLEENVTHFRDMLLERGVSAFSTWEKELHKIVFDPRYLLLNSEERKQIFEQFVKTR [R6N] — within error, -0.485 ± 0.2
- LPLEEWVTHFRDMLLERGVSAFSTWEKELHKIVFDPRYLLLNSEERKQIFEQFVKTR [R6W] — within error, -0.774 ± 0.38
- LPLEEQVTHFRDMLLERGVSAFSTWEKELHKIVFDPRYLLLNSEERKQIFEQFVKTR [R6Q] — within error, -0.744 ± 0.29
- LPLEEEVTHFRDMLLERGVSAFSTWEKELHKIVFDPRYLLLNSEERKQIFEQFVKTR [R6E] — within error, -1.01 ± 0.44
- LPLEETVTHFRDMLLERGVSAFSTWEKELHKIVFDPRYLLLNSEERKQIFEQFVKTR [R6T] — within error, -0.772 ± 0.28
- LPLEESVTHFRDMLLERGVSAFSTWEKELHKIVFDPRYLLLNSEERKQIFEQFVKTR [R6S] — within error, -0.832 ± 0.34
- LPLEEVVTHFRDMLLERGVSAFSTWEKELHKIVFDPRYLLLNSEERKQIFEQFVKTR [R6V] — within error, -0.701 ± 0.18
- LPLEEMVTHFRDMLLERGVSAFSTWEKELHKIVFDPRYLLLNSEERKQIFEQFVKTR [R6M] — within error, -0.266 ± 0.47
- LPLEERVDHFRDMLLERGVSAFSTWEKELHKIVFDPRYLLLNSEERKQIFEQFVKTR [T8D] — higher, -0.45 ± 0.18
- LPLEERVCHFRDMLLERGVSAFSTWEKELHKIVFDPRYLLLNSEERKQIFEQFVKTR [T8C] — within error, -0.372 ± 0.41
- LPLEERVMHFRDMLLERGVSAFSTWEKELHKIVFDPRYLLLNSEERKQIFEQFVKTR [T8M] — within error, -0.396 ± 0.43
- LPLEERVFHFRDMLLERGVSAFSTWEKELHKIVFDPRYLLLNSEERKQIFEQFVKTR [T8F] — higher, -0.291 ± 0.31
- LPLEERVIHFRDMLLERGVSAFSTWEKELHKIVFDPRYLLLNSEERKQIFEQFVKTR [T8I] — higher, -0.386 ± 0.2
- LPLEERVLHFRDMLLERGVSAFSTWEKELHKIVFDPRYLLLNSEERKQIFEQFVKTR [T8L] — higher, -0.471 ± 0.17
- LPLEERVHHFRDMLLERGVSAFSTWEKELHKIVFDPRYLLLNSEERKQIFEQFVKTR [T8H] — higher, -0.39 ± 0.14
- LPLEERVRHFRDMLLERGVSAFSTWEKELHKIVFDPRYLLLNSEERKQIFEQFVKTR [T8R] — within error, -0.631 ± 0.34
- LPLEERVVHFRDMLLERGVSAFSTWEKELHKIVFDPRYLLLNSEERKQIFEQFVKTR [T8V] — higher, -0.287 ± 0.11
- LPLEERVGHFRDMLLERGVSAFSTWEKELHKIVFDPRYLLLNSEERKQIFEQFVKTR [T8G] — higher, -0.35 ± 0.13
- LPLEERVNHFRDMLLERGVSAFSTWEKELHKIVFDPRYLLLNSEERKQIFEQFVKTR [T8N] — higher, -0.275 ± 0.17
- LPLEERVSHFRDMLLERGVSAFSTWEKELHKIVFDPRYLLLNSEERKQIFEQFVKTR [T8S] — higher, -0.149 ± 0.12
- LPLEERVPHFRDMLLERGVSAFSTWEKELHKIVFDPRYLLLNSEERKQIFEQFVKTR [T8P] — higher, -0.013 ± 0.37
- LPLEERVQHFRDMLLERGVSAFSTWEKELHKIVFDPRYLLLNSEERKQIFEQFVKTR [T8Q] — within error, -0.563 ± 0.41
